In patent US20210269542A1 (POTENZA THERAPEUTICS, published 2021):
Where two headings read alike, the source gives them in different places.

T1: cyno GITR-Fc (cynomolgus monkey)
T1 construct: also called cGITR; cynomolgus GITR
T1 chain: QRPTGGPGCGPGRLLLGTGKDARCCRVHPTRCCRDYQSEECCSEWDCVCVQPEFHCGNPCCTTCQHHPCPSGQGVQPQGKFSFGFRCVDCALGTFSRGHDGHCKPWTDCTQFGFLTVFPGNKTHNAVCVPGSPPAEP

T2: human GITR-Fc (human, UniProt Q9Y5U5 26-162)
T2 construct: also called recombinant hGITR; wild type human GITR-Fc
T2 sequence: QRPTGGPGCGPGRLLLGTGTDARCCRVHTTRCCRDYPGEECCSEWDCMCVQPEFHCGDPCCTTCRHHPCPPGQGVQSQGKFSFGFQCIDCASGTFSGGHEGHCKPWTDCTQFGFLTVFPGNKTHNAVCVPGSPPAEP

T3: cynomolgus monkey GITR expressed on HT1080 cells (cynomolgus monkey)
T3 chain: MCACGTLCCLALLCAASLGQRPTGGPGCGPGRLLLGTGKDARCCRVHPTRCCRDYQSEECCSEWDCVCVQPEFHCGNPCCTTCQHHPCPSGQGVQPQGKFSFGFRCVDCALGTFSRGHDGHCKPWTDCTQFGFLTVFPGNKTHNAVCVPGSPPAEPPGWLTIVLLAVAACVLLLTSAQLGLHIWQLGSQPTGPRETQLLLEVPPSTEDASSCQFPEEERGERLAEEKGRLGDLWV

T4: human GITR expressed on cells (human, UniProt Q9Y5U5 26-241)
T4 sequence: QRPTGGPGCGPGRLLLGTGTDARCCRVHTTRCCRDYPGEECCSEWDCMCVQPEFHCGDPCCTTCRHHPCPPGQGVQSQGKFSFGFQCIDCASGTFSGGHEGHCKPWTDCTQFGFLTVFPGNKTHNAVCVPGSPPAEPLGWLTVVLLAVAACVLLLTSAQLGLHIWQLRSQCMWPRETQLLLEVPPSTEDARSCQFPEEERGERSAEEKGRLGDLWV


Experiments:
cyno GITR-Fc = biological target: T1, cyno GITR-Fc; assay: BLI Octet RED384, ABP on AHQ sensor, 100 nM antigen, single concentration;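 also: association and dissociation each tracked over 180 s, with dissociation run in antigen-free buffer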
Procedure: (§1) The sensors were quenched by dipping into an unrelated human IgG1 antibody to prevent non-specific binding of GITR-Fc antigens to the sensor. The sensors were equilibrated in assay buffer for 30 minutes. Baseline was established by dipping the sensors into assay buffer for 60 seconds. Association was monitored for 180 seconds in 100 nM of recombinant antigens, and dissociation was followed for 180 seconds in buffer alone. KD was determined using the kinetic function of the FORTEBIO® Analysis Software using a 1:1 binding model.

human GITR-Fc = biological target: T2, human GITR-Fc; assay: as above
Procedure: as §1

[1] = biological target: T3, cynomolgus monkey GITR expressed on …; assay: cell-based or functional assay
[2] = biological target: T4, human GITR expressed on cells; assay: cell-based or functional assay
[3] = biological target: T4, human GITR expressed on cells; assay: cell-based or functional assay; remark: listed apart in the source
[4] = biological target: T4, human GITR expressed on cells; assay: cell-based or functional assay; remark: listed apart in the source
[5] = biological target: T3, cynomolgus monkey GITR expressed on …; assay: cell-based or functional assay
[6] = biological target: T4, human GITR expressed on cells; assay: cell-based or functional assay; remark: listed apart in the source
[7] = biological target: T3, cynomolgus monkey GITR expressed on …; assay: cell-based or functional assay
[8] = biological target: T4, human GITR expressed on cells; assay: cell-based or functional assay; remark: listed apart in the source
[9] = biological target: T3, cynomolgus monkey GITR expressed on …; assay: cell-based or functional assay
[10] = biological target: T4, human GITR expressed on cells; assay: cell-based or functional assay; remark: listed apart in the source

Binder | Kd (cyno GITR-Fc) | Kd (human GITR-Fc) | EC50 in cynomolgus HT1080 (IL-8 induction), n = 1 [1] | EC50 in human HT1080 (IL-8 induction), n = 2 [2] | Average EC50 in human HT1080 (IL-8 induction) [3] | also measured
ABP46 (antibody, human IgG1, kappa, N297A, V domains shown, IgG1 N297A, H1H2-optimized, non-TM) VH: QVQLVQSGAEVKKPGSSVKVSCKASGGTFSSYAISWVRQAPGQGLEWMGGIIPISGFANYAQKFQGRVTITADESTSTAYMELSSLRSEDTAVYYCAREGGHYYSGWPYWGQGTLVTVSS VL: EIVLTQSPATLSLSPGERATLSCRASQSVSSYLAWYQQKPGQAPRLLIYDASNRATGIPARFSGSGSGTDFTLTISSLEPEDFAVYYCQQRLVFPPTFGGGTKVEIKR | 111 nM | 59.8 nM | 6.9 nM | 1.2 nM | – | –
ABP47 (antibody, human IgG1, kappa, N297A, V domains shown, IgG1 N297A, H1H2-optimized, non-TM) VH: QVQLVQSGAEVKKPGSSVKVSCKASGGTFVRYAISWVRQAPGQGLEWMGGIIPIFGEAQYAQKFQGRVTITADESTSTAYMELSSLRSEDTAVYYCAREGYYYGALPYWGQGTLVTVSS VL: EIVLTQSPATLSLSPGERATLSCRASQSVSSYLAWYQQKPGQAPRLLIYDASNRATGIPARFSGSGSGTDFTLTISSLEPEDFAVYYCQQHSVFPPTFGGGTKVEIKR | 88.1 nM | 44.3 nM | 11.8 nM | 4.1 nM | – | –
ABP49 (antibody, human IgG1, kappa, N297A, V domains shown, IgG1 N297A, H1H2-optimized, non-TM) VH: QVQLQESGPGLVKPSQTLSLTCTVSGGSISSGGAVWSWIRQHPGKGLEWIGGIAYSGSTYYNPSLKSRVTISVDTSKNQFSLKLSSVTAADTAVYYCARDSVRGYGDYGGHHAFDIWGQGTMVTVSS VL: not shown | – | 63.5 nM | 65.8 nM | 2.7 nM | – | binding result (cyno GITR-Fc): no binding (tested: 100 nM)
ABP42 (antibody, human IgG1, kappa, N297A, V domains shown, IgG1 N297A, non-optimized, non-TM) VH: QLQLQESGPGLVKPSETLSLTCTVSGGSISSSSYAWGWIRQPPGKGLEWIGSIYYSGSTYYNPSLKSRVTISVDTSKNQFSLKLSSVTAADTAVYYCARDSGRGYGDYGGHHAFDIWGQGTMVTVSS VL: not shown | – | 11.5 nM | – | 17.8 nM | – | binding result (cyno GITR-Fc): no binding (tested: 100 nM)
ABP20 (antibody, human IgG4 S228P, kappa, TM format, N-terminal Fab: VH + IgG1 CH1 + GGGGS + VH + IgG4 S228P) heavy: not shown light: DIQLTQSPSSVSASVGDRVTITCRASQGISSWLAWYQQKPGKAPKLLIYGASSLQSGVPSRFSGSGSGTDFTLTISSLQPEDFATYYCQQASLFPPTFGGGTKVEIKRTVAAPSVFIFPPSDEQLKSGTASVVCLLNNFYPREAKVQWKVDNALQSGNSQESVTEQDSKDSTYSLSSTLTLSKADYEKHKVYACEVTHQGLSSPVTKSFNRGEC | 5.2 nM | 4.4 nM | – | – | 0.63 nM | –
ABP26 (antibody, human IgG4 S228P, kappa) heavy: not shown light: DIQLTQSPSSVSASVGDRVTITCRASQGISSWLAWYQQKPGKAPKLLIYGASSLQSGVPSRFSGSGSGTDFTLTISSLQPEDFATYYCQQASLFPPTFGGGTKVEIKRTVAAPSVFIFPPSDEQLKSGTASVVCLLNNFYPREAKVQWKVDNALQSGNSQESVTEQDSKDSTYSLSSTLTLSKADYEKHKVYACEVTHQGLSSPVTKSFNRGEC | 5.1 nM | 5.1 nM | – | – | 0.63 nM | –
ABP45 (antibody, human IgG1, kappa, N297A, V domains shown, IgG1 N297A, H1H2-optimized, non-TM) VH: QVQLVQSGAEVKKPGSSVKVSCKASGGTFSRGAISWVRQAPGQGLEWMGGIIPIEGTAYYAQKFQGRVTITADESTSTAYMELSSLRSEDTAVYYCARQSDYGLPRGMDVWGQGTTVTVSS VL: DIQLTQSPSSVSASVGDRVTITCRASQGISSWLAWYQQKPGKAPKLLIYGASSLQSGVPSRFSGSGSGTDFTLTISSLQPEDFATYYCQQASLFPPTFGGGTKVEIKR | – | 112 nM | 15.1 nM | 10.5 nM | – | –
ABP44 (antibody, human IgG1, kappa, N297A, V domains shown, IgG1 N297A, H1H2-optimized, non-TM) VH: QVQLVQSGAEVKKPGSSVKVSCKASGGTFSSYYISWVRQAPGQGLEWMGGIIPVPGTANYAQKFQGRVTITADESTSTAYMELSSLRSEDTAVYYCARAGGGYARGDHYYGMDVWGQGTTVTVSS VL: not shown | – | 46.5 nM | 28 nM | 4.2 nM | – | –
trimeric human GITR ligand (ligand, UniProt Q9UNG2 50-177, looked up) QLETAKEPCMAKFGPLPSKWQMASSEPPCVNKVSDWKLEILQNGLYLIYGQVAPNANYNDVAPFEVRLYKNKDMIQTLTNKSKIQNVGGTYELHVGDTIDLIFNSEHQVLKNNTYWGIILLANPQFIS | – | – | – | – | 0.37 nM | EC50, Jurkat cells expressing human GITR (run with ABP 1) [4]: 0.9 nM; EC50, Jurkat cells expressing human GITR (run with ABP 2) [4]: 0.91 nM; EC50, Jurkat cells expressing human GITR (run with ABP 3) [4]: 0.85 nM; EC50, Jurkat cells expressing human GITR (run with ABP 4) [4]: 1.13 nM; EC50, Jurkat cells expressing human GITR (run with ABP 5) [4]: 1.01 nM; EC50, Jurkat cells expressing human GITR (run with ABP 6) [4]: 0.9 nM; EC50, Jurkat cells expressing human GITR (run with ABP 7) [4]: 0.81 nM; EC50, Jurkat cells expressing human GITR (run with ABP 8) [4]: 0.89 nM; Average EC50 in cynomolgus HT1080 (IL-8 induction) [5]: 0.17 nM; Average EC50 in human HT1080 (IL-8 induction) [6]: 0.43 nM; Average EC50 in cynomolgus HT1080 (IL-8 induction) [7]: 0.076 nM; Average EC50 in human HT1080 (IL-8 induction) [8]: 0.12 nM; EC50 in cynomolgus HT1080 (IL-8 induction) [9]: 0.2 nM; EC50 in human HT1080 (IL-8 induction) [10]: 0.4 nM
